Reference: patent publication US20030170785A1

Target: CaV1.2 (α1C) L-type calcium channel subunit
Experiment: cell-based or functional assay

Substance: calcium channel β3 subunit
- Ca^2+ influx (fluorescence change after depolarization with 50 mM KCl) in transfected HEK 293 cells: 3 fold
